Measured values published in IntAct's records for PubMed 35512704.

B1: Mothers against decapentaplegic homolog 4 (Homo sapiens), Q13485 (parent)
chain: MDNMSITNTPTSNDACLSIVHSLMCHRQGGESETFAKRAIESLVKKLKEKKDELDSLITAITTNGAHPSKCVTIQRTLDGRLQVAGRKGFPHVIYARLWRWPDLHKNELKHVKYCQYAFDLKCDSVCVNPYHYERVVSPGIDLSGLTLQSNAPSSMMVKDEYVHDFEGQPSLSTEGHSIQTIQHPPSNRASTETYSTPALLAPSESNATSTANFPNIPVASTSQPASILGGSHSEGLLQIASGPQPGQQQNGFTGQPATYHHNSTTTWTGSRTAPYTPNLPHHQNGHLQHHPPMPPHPGHYWPVHNELAFQPPISNHPAPEYWCSIAYFEMDVQVGETFKVPSSCPIVTVDGYVDPSGGDRFCLGQLSNVHRTEAIERARLHIGKGVQLECKGEGDVWVRCLSDHAVFVQSYYLDREAGRAPGDAVHKIYPSAYIKVFDLRQCHRQMQQQAATAQAAAAAQAAAVAGNIPGPGSVGGIAPAISLSAAAGIGVDDLRRLCILRMSFVKGWGPDYPRQSIKETPCWIEIHLHRALQLLDEVLHTMPIADPQPLD
partner: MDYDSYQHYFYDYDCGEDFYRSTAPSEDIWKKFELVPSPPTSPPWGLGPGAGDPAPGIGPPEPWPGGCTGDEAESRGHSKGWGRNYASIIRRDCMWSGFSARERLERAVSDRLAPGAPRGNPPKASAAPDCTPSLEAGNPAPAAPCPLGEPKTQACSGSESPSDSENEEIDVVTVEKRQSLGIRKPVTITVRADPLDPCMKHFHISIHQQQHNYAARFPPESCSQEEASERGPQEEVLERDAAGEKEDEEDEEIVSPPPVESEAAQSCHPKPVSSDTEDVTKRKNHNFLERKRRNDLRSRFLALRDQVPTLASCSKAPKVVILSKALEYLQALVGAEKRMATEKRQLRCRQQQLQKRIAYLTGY
B2: Mothers against decapentaplegic homolog 4 (Homo sapiens), Q13485 (parent)
chain: B1 chain
partner: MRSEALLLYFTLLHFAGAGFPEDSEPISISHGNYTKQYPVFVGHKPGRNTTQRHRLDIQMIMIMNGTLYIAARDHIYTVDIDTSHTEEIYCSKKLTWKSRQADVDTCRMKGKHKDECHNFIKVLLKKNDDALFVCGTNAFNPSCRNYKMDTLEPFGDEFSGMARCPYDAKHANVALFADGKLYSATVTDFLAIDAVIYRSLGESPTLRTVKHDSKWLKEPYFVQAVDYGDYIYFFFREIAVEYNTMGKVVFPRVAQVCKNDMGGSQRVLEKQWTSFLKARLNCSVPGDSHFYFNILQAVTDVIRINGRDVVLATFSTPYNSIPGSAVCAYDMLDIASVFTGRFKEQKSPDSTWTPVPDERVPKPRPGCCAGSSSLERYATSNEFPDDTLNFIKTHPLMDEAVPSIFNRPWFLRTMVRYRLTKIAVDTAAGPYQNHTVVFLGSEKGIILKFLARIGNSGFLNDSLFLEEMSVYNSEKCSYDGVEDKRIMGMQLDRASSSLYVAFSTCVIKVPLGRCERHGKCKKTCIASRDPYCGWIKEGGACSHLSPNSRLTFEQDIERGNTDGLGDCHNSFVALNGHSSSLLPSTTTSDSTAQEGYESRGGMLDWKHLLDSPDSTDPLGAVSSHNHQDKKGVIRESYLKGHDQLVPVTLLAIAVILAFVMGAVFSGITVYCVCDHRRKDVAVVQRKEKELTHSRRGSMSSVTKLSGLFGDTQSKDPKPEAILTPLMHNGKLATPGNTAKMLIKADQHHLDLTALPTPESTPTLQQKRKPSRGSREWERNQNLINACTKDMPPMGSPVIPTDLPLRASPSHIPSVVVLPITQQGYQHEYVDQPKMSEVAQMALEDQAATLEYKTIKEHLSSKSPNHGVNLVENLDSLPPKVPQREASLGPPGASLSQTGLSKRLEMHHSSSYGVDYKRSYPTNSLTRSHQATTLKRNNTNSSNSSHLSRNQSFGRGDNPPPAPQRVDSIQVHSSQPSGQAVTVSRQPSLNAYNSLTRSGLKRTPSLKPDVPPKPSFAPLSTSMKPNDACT
B3: Mothers against decapentaplegic homolog 4 (Homo sapiens), Q13485 (parent)
chain: B1 chain
partner: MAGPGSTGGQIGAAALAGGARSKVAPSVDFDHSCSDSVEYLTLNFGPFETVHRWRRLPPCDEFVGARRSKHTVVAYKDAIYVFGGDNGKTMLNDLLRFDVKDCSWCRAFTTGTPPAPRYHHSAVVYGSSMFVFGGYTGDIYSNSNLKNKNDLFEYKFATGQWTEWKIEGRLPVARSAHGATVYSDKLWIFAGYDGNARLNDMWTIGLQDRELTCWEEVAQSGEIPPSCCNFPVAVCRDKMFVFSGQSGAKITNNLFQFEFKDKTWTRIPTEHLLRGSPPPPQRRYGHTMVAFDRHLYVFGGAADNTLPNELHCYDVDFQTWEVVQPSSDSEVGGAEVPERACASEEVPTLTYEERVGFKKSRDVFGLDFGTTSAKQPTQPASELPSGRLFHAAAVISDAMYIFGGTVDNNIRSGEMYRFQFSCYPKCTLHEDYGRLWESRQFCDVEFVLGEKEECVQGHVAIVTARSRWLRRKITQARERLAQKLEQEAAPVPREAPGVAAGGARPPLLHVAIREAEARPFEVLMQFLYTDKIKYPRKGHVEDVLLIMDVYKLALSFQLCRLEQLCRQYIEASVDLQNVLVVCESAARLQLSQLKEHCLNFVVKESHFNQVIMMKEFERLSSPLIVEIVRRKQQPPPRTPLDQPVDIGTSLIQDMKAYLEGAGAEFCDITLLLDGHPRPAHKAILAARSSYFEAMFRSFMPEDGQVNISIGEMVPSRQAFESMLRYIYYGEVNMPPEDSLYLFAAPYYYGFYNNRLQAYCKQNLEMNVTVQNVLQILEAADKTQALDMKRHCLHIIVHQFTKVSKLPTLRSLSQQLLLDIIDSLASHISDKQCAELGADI

Variants of: B1
Conditions: with mycl_human MYCL

effect of a mutation on the interaction	Variant
with no effect	R361H

Variants of: B1
Conditions: with mycl_human MYCL
Remark: another data set of the same source

effect of a mutation on the interaction	Variant
with no effect	G386D

Variants of: B2
Conditions: with sem6a_human SEMA6A

effect of a mutation on the interaction	Variant
with no effect	G386D

Variants of: B2
Conditions: with sem6a_human SEMA6A
Remark: another data set of the same source

effect of a mutation on the interaction	Variant
with no effect	D351H

Variants of: B2
Conditions: with sem6a_human SEMA6A
Remark: another data set of the same source

effect of a mutation on the interaction	Variant
with no effect	R361H

Variants of: B2
Conditions: with sem6a_human SEMA6A
Remark: another data set of the same source

effect of a mutation on the interaction	Variant
with no effect	R361C

Variants of: B3
Conditions: with lztr1_human LZTR1, Q8N653

effect of a mutation on the interaction	Variant
with no effect	G386D

Variants of: B3
Conditions: with lztr1_human LZTR1, Q8N653
Remark: another data set of the same source

effect of a mutation on the interaction	Variant
with no effect	D351H

Variants of: B3
Conditions: with lztr1_human LZTR1, Q8N653
Remark: another data set of the same source

effect of a mutation on the interaction	Variant
with no effect	R361C

Variants of: B3
Conditions: with lztr1_human LZTR1, Q8N653
Remark: another data set of the same source

effect of a mutation on the interaction	Variant
decreasing interaction strength	R361C
decreasing interaction strength	R361H

Variants of: B3
Conditions: with lztr1_human LZTR1, Q8N653
Remark: another data set of the same source

effect of a mutation on the interaction	Variant
with no effect	R361H
